Experimental data reported in patent publication US12723100 (CSPC MEGALITH BIOPHARMACEUTICAL, dated 2026).

T1: rat Nectin-4 (rat, UniProt Q8R007 31-508 (mouse entry))
T1 construct: Transiently expressed on 293T cells
T1 chain: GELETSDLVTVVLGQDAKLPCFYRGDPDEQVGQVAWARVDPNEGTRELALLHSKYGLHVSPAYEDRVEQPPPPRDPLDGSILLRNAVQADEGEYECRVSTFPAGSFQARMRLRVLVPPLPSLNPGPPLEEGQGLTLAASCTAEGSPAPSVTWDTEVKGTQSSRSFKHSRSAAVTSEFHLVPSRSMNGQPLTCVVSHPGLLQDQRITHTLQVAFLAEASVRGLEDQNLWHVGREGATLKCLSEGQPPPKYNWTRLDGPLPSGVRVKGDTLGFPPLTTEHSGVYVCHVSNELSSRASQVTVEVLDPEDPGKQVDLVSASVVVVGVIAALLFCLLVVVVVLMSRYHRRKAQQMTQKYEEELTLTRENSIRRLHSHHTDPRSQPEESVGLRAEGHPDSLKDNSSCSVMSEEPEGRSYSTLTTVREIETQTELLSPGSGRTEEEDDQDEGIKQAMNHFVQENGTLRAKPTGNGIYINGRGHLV

T2: full-length human Nectin-4 on cells (human, UniProt Q96NY8 32-510)
T2 construct: the cell is named under assay; also called CHO-Nectin-4 cells; Nectin-4-CHO
T2 sequence: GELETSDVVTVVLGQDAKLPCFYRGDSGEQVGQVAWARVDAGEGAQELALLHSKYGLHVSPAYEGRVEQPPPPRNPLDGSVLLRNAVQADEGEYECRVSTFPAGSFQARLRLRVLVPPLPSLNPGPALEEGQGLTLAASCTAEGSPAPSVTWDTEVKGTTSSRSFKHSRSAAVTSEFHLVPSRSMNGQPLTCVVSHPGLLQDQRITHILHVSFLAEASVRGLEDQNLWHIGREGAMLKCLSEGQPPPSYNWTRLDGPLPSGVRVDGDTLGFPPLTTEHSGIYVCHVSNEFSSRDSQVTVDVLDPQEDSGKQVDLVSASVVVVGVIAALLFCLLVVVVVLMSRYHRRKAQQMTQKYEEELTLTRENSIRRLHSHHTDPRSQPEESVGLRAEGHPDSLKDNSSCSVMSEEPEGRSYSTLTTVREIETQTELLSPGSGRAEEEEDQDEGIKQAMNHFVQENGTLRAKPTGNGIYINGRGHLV

T3: mouse Nectin-4 (mouse, UniProt Q8R007 31-508)
T3 construct: Transiently expressed on 293T cells; also called murine Nectin-4
T3 sequence: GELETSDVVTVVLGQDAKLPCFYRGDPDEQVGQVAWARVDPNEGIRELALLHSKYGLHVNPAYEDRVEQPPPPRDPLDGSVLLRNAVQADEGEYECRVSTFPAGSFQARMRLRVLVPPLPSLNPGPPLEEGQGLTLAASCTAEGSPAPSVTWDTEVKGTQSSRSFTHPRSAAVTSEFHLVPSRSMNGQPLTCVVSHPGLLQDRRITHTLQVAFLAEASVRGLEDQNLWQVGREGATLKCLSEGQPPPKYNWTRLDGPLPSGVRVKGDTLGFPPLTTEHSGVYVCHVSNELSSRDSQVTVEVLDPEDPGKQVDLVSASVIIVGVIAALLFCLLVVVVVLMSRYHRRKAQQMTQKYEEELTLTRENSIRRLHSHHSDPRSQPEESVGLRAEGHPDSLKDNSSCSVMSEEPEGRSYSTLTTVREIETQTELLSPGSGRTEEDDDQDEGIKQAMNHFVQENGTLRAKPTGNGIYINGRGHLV


How the values were obtained:
[1] = target: T1, rat Nectin-4; assay: flow cytometry, transfected 293T cells; + EC50 between 25 nM and 133 nM
Description: (§1) CDNAs encoding Nectin-4 protein from cynomolgus monkey (SEQ ID NO: 62), rat (SEQ ID NO: 63), or mouse (SEQ ID NO: 64) were separately cloned into a pcDNA3.1-based mammalian expression plasmid. The respective plasmids were transfected to human 293T cells in a similar way described in Example 6. The binding EC50 of disclosed human Nectin-4 antibodies to species-specific Nectin-4 transiently expressed on 293T cell surface was measured by flow cytometry.

[2] = target: T2, full-length human Nectin-4 on cells; assay: flow cytometry competition on CHO-Nectin-4 cells; competitor biotinylated human Nectin-1-His; Nectin-1 as competitor
Description: The ability of disclosed Nectin4-specific antibodies to block Nectin-1 binding to Nectin-4 expressing cells (CHO cells transfected with human Nectin-4) was determined by FACS. Briefly, CHO-Nectin-4 cells were incubated with dilutions of the disclosed Nectin-4 purified recombinant antibodies. Then, biotinylated human Nectin-1 with His tag (ACROBiosystems, catalog number: PV1-H5223, lot: 733-38GS1-47, 0.75 ug/ml) was added to the plate. After 30-minute incubation, cells were washed, followed by adding Streptavidin Alexa 647 (1:1000) to the samples. After a 30 minute incubation, the samples were analyzed on a flow cytometry instrument (Intellicyte, IQue plus, Sartorius) for Nectin-1 blocking activity. The positive control antibody used in this blocking assay is a reference antibody (known to be a recombinant Nectin-4 specific antibody, made by Novarock Biotherapeutics, lot: 03042020KD).

[3] = target: T2, full-length human Nectin-4 on cells; assay: flow cytometry competition on CHO-Nectin-4 cells; competitor biotinylated human TIGIT; TIGIT as competitor
Description: The ability of disclosed Nectin4-specific antibodies to block TIGIT binding to CHO-Nectin-4 cells was assessed by FACS. Briefly, CHO-Nectin-4 cells were incubated with dilutions of the disclosed purified recombinant antibodies. Then, biotinylated human TIGIT protein (SinoBiologic, catalog: 10917-H08H-B, lot: LC13AP0902) was added to the plate. After 30-minute incubation, cells were washed, followed by adding Streptavidin Alexa 647 (1:1000) to the samples. After a 30 minute incubation, the samples were analyzed on a flow cytometry instrument (Intellicyte, IQue plus, Sartorius) for TIGIT blocking activity. The positive control antibody used in this blocking assay is PC2, a Nectin-4 antibody with known blocking activity.

[4] = target: T3, mouse Nectin-4; assay: flow cytometry, transfected 293T cells; + EC50 between 25 nM and 133 nM
Description: as §1

[5] = target: T1, rat Nectin-4; assay: flow cytometry, transfected 293T cells; +++ EC50 less than 5 nM
Description: as §1

[6] = target: T3, mouse Nectin-4; assay: flow cytometry, transfected 293T cells; ++ EC50 between 5 nM and 25 nM
Description: as §1

[7] = target: T1, rat Nectin-4; assay: as above
Description: as §1

| Binder | EC50 [5] [nM] | EC50 [6] [nM] | other results |
| --- | --- | --- | --- |
| N4_mAb 4 (antibody, human IgG1, V domains shown, Tested as chimera (human IgG1/kappa constants); not shown: human IgG1 constant region (Uniprot P01857); human Kappa light chain constant region (UniProt P01834)) VH: DVQLQESGPDLVKPSQSLSLTCTVTGYSITSAYNWHWIRQFPGNKLEWMGYIHYSGRTNYNPSLKSRISITRDTSKNQFFLQLNSLTTEDTATYYCARWITTATGWYLDVWGAGTTVTVSS VL: not shown | – | – | EC50 [1]: 25 to 133 nM; EC50 [2]: > 130 nM; EC50 [3]: > 130 nM |
| N4_mAb 5 (antibody, human IgG1, V domains shown, Tested as chimera (human IgG1/kappa constants); not shown: human IgG1 constant region (Uniprot P01857); human Kappa light chain constant region (UniProt P01834)) VH: EVQLQQSGPDLVKPGASVKISCKASGYSFTGHYMHWVKQSHGKSLEWIGRVNPNNGGSSYNQKFKDKAILTVDKSSTTAYMELRSLTSEDSAVYYCARDPLGGSYGFAYWGQGTLVTVSA VL: DIVLTQSPASLAVSLGQRATISCRASQSVTTSSYSYMHWYQQKPGQPPKLLIKYASNLESGVPARFSGSGSGTDFTLNIHPVEEEDTATYYCQHSWEIPYTFGGGTKLEMK | < 5 | – | EC50 [4]: 25 to 133 nM |
| N4_mAb 3 (antibody, human IgG1, V domains shown, Tested as chimera (human IgG1/kappa constants); not shown: human IgG1 constant region (Uniprot P01857); human Kappa light chain constant region (UniProt P01834)) VH: EVQLQQSGAELVKPGASVKLSCTVSGFNIKDTYMHWVKQRPEQGLEWIGRIDPANGNTKYDPKFQGKATIIADKASNTAYLQLSSLTSEDAAVYYCAHYYGSSYFAMDCWGQGTSVTVSS VL: DIVMTQSHKFMSTSVGDRVSITCKASQDVSTAVAWYQQKPGQSPKLLIYWASTRHTGVPDRFTGSGSGTDYTLTISSVQTEDLALYYCQQHYSTPLTFGAGTKLELK | – | – | EC50 [1]: 25 to 133 nM |
| N4_mAb 2 (antibody, human IgG1, V domains shown, Tested as chimera (human IgG1/kappa constants); not shown: human IgG1 constant region (Uniprot P01857); human Kappa light chain constant region (UniProt P01834)) VH: QVQLKQSGPNLVQPSQSLSITCTVSGFSLTTYGAHWVRQSPGKGLEWLGVIWRGGSTDYNAAFMSRLSITKDNSKSQVFFKMNSLQADDTAIYYCAKIGYDGYAMDNWGQGTSVTVSS VL: DFQVTQSPASLSASVGETVTITCRTSENIHNYLAWYQQKQGKSPQLLVYNAKTLADGVPSRFSGSGSGTQYSLKINSLQPEDFGTYYCQHFWSSPWTFGGGTKLEIK | – | 5 to 25 | EC50 [7]: 5 to 25 nM |

More lines, main results first:

| EC50 [5] [nM] | EC50 [6] [nM] | Binder | other results |
| --- | --- | --- | --- |
| < 5 | 5 to 25 | N4_mAb 6 (antibody, human IgG1, V domains shown, Tested as chimera (murine variable regions, human IgG1/kappa constants); not shown: human IgG1 constant region (Uniprot P01857); human Kappa light chain constant region (UniProt P01834)) VH: QVQLQQSGPELVKPGASVRISCKASGYTFTTYYIHWVKQRPGQGLEWIGWIYPGNVNTKYTENFKDKATLTADKSSSTAYMQLSSLTSEDSAVYFCARGLYYFDFWGQGTTLTVSS VL: SIVMTQTPKFLLVSAGDRVTITCKASQSVNNDVAWYQQKPGQSPKLLIYYASNRDTGVPDRFTGSGFGTDFTFTISSVQAEDLAVYFCQQDYSSPYTFGGGTKLEIK | – |
| < 5 | 5 to 25 | N4_mAb 8 (antibody, human IgG1, V domains shown, Tested as chimera (murine variable regions, human IgG1/kappa constants); not shown: human IgG1 constant region (Uniprot P01857); human Kappa light chain constant region (UniProt P01834)) VH: QVQLQQSGPVLVKPGASVRISCKASGYTFTSYYIHWVKQRPGQGLEWIGWIYPGNVNTKYNENFRDKATLTADKSSSTSYMQLSSLTSEDSAVYFCARGIYYFDYWGQGTTLTVSS VL: IIVMTQTPKFLLVSAGDRVTITCKASQSVNNDVAWYQEKPGQSPKLLIYYASNRDTGVPDRFTGSGYGTDFTFTISTVQAEDLAVYFCHQDYSSPFTFGSGTKLEIK | – |
| < 5 | 5 to 25 | N4_mAb 7 (antibody, human IgG1, V domains shown, Tested as chimera (murine variable regions, human IgG1/kappa constants); not shown: human IgG1 constant region (Uniprot P01857); human Kappa light chain constant region (UniProt P01834)) VH: QVQLQQSGPELVKPGASVKMSCKASGYTFTTYYIHWVKQRPGQGLEWIGWIYPGNAGIKSNEKFKGKTTLTADKSSSTAYMLLSSLTSEDSAIYFCARGVYFFDYWGQGTTLTVSS VL: SIVMTQTPKFLLVSAGDRVTITCKASQSVNNDVSWFQQKPGQSPKLLIYYASNRYTGVPDRFSGSGYGTDFTFTITTVQAEDLAVYFCQQDYSSPYTFGGGTKLEIK | – |
